Three molecules from PMC12618784 can be followed below.

Experiment [1] concerns the target T1, Porin, Q94920.
T1 chain: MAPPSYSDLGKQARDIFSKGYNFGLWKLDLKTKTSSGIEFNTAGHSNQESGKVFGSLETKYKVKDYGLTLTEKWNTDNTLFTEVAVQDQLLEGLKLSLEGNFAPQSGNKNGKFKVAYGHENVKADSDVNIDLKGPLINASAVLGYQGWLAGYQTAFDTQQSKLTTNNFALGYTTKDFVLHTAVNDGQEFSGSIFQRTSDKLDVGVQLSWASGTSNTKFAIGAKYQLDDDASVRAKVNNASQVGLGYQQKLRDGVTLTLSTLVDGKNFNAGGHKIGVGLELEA
Put plainly: pull-down (anti-HA immunoprecipitation) with mass spectrometry. The note with it: chain shown with the change; 3rd instar larval muscle tissue (mef2-Gal4); four individual biological replicates; read off a plot.

The next experiment concerns the target T2, Porin::HA, Q94920.
T2 chain: T1 chain
Put plainly: co-immunoprecipitation (anti-GFP beads), quantified blot. Particulars: chain shown with the change; transfected Sf21 cells; values normalised to the corresponding amounts of precipitated Dmel\Tmem43; parent: est. 0.75; read off a plot.

The target of another experiment is T3, Mitofilin, P91928.
T3 chain: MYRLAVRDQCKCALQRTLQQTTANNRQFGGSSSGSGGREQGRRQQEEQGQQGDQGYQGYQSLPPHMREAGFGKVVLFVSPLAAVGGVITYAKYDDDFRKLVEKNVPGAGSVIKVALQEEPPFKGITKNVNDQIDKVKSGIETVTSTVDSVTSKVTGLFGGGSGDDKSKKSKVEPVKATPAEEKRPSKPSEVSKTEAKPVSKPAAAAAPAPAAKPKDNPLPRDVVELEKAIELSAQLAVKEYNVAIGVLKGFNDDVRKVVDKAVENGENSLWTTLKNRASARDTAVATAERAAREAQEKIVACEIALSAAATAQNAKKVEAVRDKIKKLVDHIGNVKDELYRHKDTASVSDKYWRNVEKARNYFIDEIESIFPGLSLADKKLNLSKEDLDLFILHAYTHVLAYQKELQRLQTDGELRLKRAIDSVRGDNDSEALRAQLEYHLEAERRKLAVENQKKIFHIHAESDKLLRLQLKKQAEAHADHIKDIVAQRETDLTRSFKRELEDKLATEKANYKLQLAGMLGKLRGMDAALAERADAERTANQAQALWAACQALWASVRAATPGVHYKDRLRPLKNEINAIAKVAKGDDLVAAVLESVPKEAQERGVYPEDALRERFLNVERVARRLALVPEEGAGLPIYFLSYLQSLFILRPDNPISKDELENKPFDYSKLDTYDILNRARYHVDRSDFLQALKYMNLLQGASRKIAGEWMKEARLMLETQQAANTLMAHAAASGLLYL
Put plainly: TurboID biotin proximity labelling with mass spectrometry. Particulars: chain shown with the change; 3rd instar larval muscle tissue (mef2-Gal4); parent: 1.

In experiment [2] the target is T1, Porin, Q94920. The experiment is described as above. Particulars: chain shown with the change; 3rd instar larval muscle tissue (mef2-Gal4); parent: 1.
Another experiment concerns the target SERCA, P22700. The experiment is described as above. The note with it: chain shown with the change; 3rd instar larval muscle tissue (mef2-Gal4); parent: 1.
Experiment [3] has as its target T4, Sphingosine-1-phosphatase lyase (Sply), Q9V7Y2.
T4 chain: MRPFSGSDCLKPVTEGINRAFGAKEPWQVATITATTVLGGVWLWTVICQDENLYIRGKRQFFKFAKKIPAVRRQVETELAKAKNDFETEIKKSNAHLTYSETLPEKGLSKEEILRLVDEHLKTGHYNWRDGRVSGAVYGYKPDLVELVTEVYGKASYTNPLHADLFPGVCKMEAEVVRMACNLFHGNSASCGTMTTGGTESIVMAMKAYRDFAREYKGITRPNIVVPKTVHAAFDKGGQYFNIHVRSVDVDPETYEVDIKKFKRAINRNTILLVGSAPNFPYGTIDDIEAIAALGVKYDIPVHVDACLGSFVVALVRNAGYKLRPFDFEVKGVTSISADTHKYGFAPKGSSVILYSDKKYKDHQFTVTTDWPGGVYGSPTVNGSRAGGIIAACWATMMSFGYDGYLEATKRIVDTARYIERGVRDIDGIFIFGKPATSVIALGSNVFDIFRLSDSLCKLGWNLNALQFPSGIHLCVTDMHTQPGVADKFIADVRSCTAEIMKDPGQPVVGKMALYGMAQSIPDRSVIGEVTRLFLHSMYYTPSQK
The experiment is described as above. The note with it: chain shown with the change; 3rd instar larval muscle tissue (mef2-Gal4); parent: 1.

SERCA, P22700, sequence (P22700 whole entry, the tested form may be a part): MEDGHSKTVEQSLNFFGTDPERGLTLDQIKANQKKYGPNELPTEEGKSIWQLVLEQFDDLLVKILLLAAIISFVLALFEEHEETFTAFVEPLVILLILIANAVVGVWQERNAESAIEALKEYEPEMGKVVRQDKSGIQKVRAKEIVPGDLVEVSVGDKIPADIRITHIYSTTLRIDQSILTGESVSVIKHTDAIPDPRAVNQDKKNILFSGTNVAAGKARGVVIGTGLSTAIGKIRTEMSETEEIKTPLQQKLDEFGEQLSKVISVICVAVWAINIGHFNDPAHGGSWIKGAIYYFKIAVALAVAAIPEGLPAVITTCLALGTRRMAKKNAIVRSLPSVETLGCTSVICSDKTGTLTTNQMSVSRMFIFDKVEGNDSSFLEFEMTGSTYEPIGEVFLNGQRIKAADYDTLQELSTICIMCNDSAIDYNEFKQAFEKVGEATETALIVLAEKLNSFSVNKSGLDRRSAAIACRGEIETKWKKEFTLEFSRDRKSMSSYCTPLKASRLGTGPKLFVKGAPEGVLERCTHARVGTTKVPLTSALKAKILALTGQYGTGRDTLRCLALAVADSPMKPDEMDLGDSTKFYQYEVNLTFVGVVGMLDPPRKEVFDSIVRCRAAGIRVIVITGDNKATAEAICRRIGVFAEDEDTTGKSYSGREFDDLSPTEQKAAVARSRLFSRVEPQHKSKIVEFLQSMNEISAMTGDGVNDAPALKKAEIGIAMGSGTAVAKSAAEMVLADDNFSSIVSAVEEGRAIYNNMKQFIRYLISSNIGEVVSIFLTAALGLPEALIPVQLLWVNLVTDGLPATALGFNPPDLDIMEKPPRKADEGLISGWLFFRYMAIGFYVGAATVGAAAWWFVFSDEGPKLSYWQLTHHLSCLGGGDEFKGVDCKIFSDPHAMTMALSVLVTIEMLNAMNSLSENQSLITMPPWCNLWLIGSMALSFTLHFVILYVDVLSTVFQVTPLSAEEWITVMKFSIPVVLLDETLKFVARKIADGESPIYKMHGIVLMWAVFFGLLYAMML

B1: Dmel\Tmem43wt::HA, Q9VSB9 p.S333L (protein)
chain: MASLSETLRSHWPIALFGVILFVAGGTELYWNEGRAVHNMMALDEAHADIYSVRFTEEEQEVGLEGRIVHLSGPILVGEPLTEPDYNIQLLAVKLRRRVQMYQWVEEAVEHNYGDSVGTTHSDSRTYYYTREWRDKIVDSRNFYNRHGHTNPSHFPIESHVQVADAVFIGRYELGAEVKEKFNNYQELTSDIRPEDSGVKLHLGIYYHTNDVFNPEVGDLRLLFSFAGMEGEVFSVVGKLSGNKLVPYITSRGVPVLLVYPGGLSVQEVFRLEARAQVLHTWWWRFVGWLLIFFGVTCNTKILRLLFVRVPLLVALAPDPQFPVTGNLLIAFLLALTIAAVAWILHRPVIGACLLLAGASPYVWFTRNLVDYHRLD
Regarding B1, the ratio to parent with Porin, Q94920 [1] was determined as 0.4.

B2: Dmel\Tmem43wt::GFP, Q9VSB9 p.S333L (protein)
chain: B1 chain
Consider B2, for which, in the experiment with Porin::HA, Q94920, the response is 0.05.

B3: Dmel\Tmem43wt::TurboID, Q9VSB9 p.S333L (protein)
chain: B1 chain
B3: the ratio to parent with Mitofilin, P91928 came out at 0.17; with Porin, Q94920 [2], 0.13; in the experiment with SERCA, P22700, 0.17; in experiment [3] it was 0.23.
